Literature values as cited in article PMC7717565, “Structure of the Lifeact–F-actin complex” (PLoS Biology, 2020).

Molecular target: F-actin (Oryctolagus cuniculus) (UniProt P68135)

## Lifeact Lifeact (from UniProt Q08641)
  Kd: 13.2 µM
